Laboratory results: PMC3758481

Experiments:
[1] = biological target: spin labeled S697C mutant of C99 (human) (UniProt P05067); assay: continuous wave EPR of spin labeled protein
[2] = biological target: spin labeled L705C mutant of C99 (human) (UniProt P05067); assay: continuous wave EPR of spin labeled protein

| KD, average of four fits (sites S697C and L705C, two fields each) [1] | KD, average of four fits (sites S697C and L705C, two fields each) [2] | Substance |
| --- | --- | --- |
| 0.44 mol% | – | spin labeled S697C mutant of C99 (from UniProt P05067 672-770) (domain or fragment) |
| – | 0.44 mol% | spin labeled L705C mutant of C99 (from UniProt P05067 672-770) (domain or fragment) |
